The target in test [1] is biotinylated canine IL-31 (canine). In words: ELISA: IL-31RA coated at 10 µg/mL, biotinylated IL-31 titrated 3-fold from 10 µg/mL, HRP-streptavidin.
The target in test [2] is T1, canine IL-22 with a C-terminal HIS tag (canine).
T1 construct: Recombinant, made in HEK-293 or CHO cells; coated on the ELISA plate; also called cIL-22-His; canine IL-22-HIS
T1 chain: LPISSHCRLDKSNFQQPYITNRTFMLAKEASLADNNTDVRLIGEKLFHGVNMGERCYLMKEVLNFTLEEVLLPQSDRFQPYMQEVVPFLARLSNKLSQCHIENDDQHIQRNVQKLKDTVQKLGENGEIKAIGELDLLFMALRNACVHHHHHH
In words: ELISA: cIL-22-His coated at 1 µg/mL, Fezakinumab titrated from 5 µg/mL, anti-human IgG Fc-HRP. How it is done: The binding of canine IL-22 HIS to the anti-IL-22 antibody Fezakinumab was determined by ELISA as follows: […]

Regarding “Canine IL-31RA ECD-10His (extracellular domain of canine IL-31 receptor alpha fused to a HIS tag)”, the EC50 in test [1] is 0.368 µg/mL.

B1: Fezakinumab (human monoclonal anti-IL-22 antibody) (antibody, human IgG1, lambda, V domains shown)
VH: QVQLVQSGAEVKKPGASVKVSCKASGYTFTNYYMHWVRQAPGQGLEWVGWINPYTGSAFYAQKFRGRVTMTRDTSISTAYMELSRLRSDDTAVYYCAREPEKFDSDDSDVWGRGTLVTVSS
VL: QAVLTQPPSVSGAPGQRVTISCTGSSSNIGAGYGVHWYQQLPGTAPKLLIYGDSNRPSGVPDRFSGSKSGTSASLAITGLQAEDEADYYCQSYDNSLSGYVFGGGTQLTVLG
notes: Full human heavy and light chains, marked PRIOR ART; made recombinantly in HEK-293 or CHO cells; also called Fezakinumab-mAb; Feza-mAb
With B1, the binding result in test [2] is “binds”.

The values are drawn from US20230250177A1 (INTERVET, published 2023).
